Test results reported in article PMC5501786.

Substrate: O=P(O)(O)O[C@H]1O[C@H](CO)[C@@H](O)[C@H](O)[C@H]1O
Test: purified protein
Settings: synthetic direction, glucosyl donor 0.5-10 mM, 20 mM D-glucose, 1 mM MgCl2, 10 mM DTT, Tris-HCl pH 7.5, 60 °C
Source text: Pi release from G-1-P, molybdate assay, Hanes-Woolf plot on TaCDP (initially TaCBP; THA_1941)

B1: TaCDP (initially TaCBP; THA_1941) (Thermosipho africanus TCF52B) (protein)
chain: MKKFDFVIENYSKQKLFSSFLPGIAGKNGIPLWVFYVNRGQCIASFGIENKANSILEFKPAGQSHTDTPLKGFRTFIKVDGRYYEPFSELTNFKREMRINKNSLEIEERNNELGLKVKVIYFVLPNEDFAALVRRVEIENEDKYEKHIEIIDGLPEVIPYGVSNGLYKEMGYTARAWMHVYNYEKKVPFYSVRTTIGDLEIVEEINNGYFYFASSGDELLEVIYDKNVLFGNSTSLQVPLVFKELGIKEVLRKEQYDENLLPSAFGVLERKLKDKVVINSMIGFSKEKGLINNNINTLKKDEYIISKKEEADLIVEELVSEIKTKTSNKLFDKYCEQNYLDNVLRGGYPLVFENKDGKVVYHIYSRKHGDLERDYNFFVLEAKKYSQGNGNFRDVAQNRRNDVIFHPEIEDFNLSMFVNLIQADGNNPLVVKGTRFKFEGDPSILDGVNEELKEFILNNYFTPGEILEKLKDKNVNEDEFVSKILYHSSQHEQAEFGEGYWIDHWTYLMDLVDTYKEIYPDKLQKTLFEKFEYKIYDSHAYVKPRKEKYKLYKGKVRQIAAVGESHEKLKIIQERGHNYLTDRNGNIYKTNMFEKLLLLAVNKFATLDPYGMGLEMEANKPGWNDALNGLPALFGSGMSETFELKRLINFMYEELKKYNKDIEVFEELQEFIQKIKVELENYFNDNDQFIYWDNVSNAKEEYRSKVFYSITGNKKKISKVELLAILKKMIKKLDEGIERAKNYGKGIYPTFFTYELVDYEVIDGVIIPKKFEVNVLPYFLEGIVRAFKVIDKDEKKKLYDFVKNSNIYDKKLKMYKTSESILNQPYSIGRIRAFTPGWLENESVFMHMEFKYLLELIKSDMLEEFYEDIKTALPPYMDYKVYGRSILENSSFIVSSANSNPNLHGQGFYARLSGSTAEFLSMWKYMFIGDKLFTLENNELTFTFEPKINKEFFENGVIEFKLFSKTKVKYVNPQLKEKIGRIEVFVDGKKFEIHGNKIKGELAHKLRNKKIDEVICYFE
Question: Which results are given for B1?
Answer: Km: 1570 ± 200 µM; kcat: 7.61 ± 0.66 s⁻¹; kcat/Km: 4850 M⁻¹ s⁻¹
